Here are results for 10 molecules from publication PMC10764318 (Nature Communications, 2024).

Experiment [1] concerns the target T1, SARS-CoV-2 RBD (318-514), Avi-tagged, biotinylated (SARS-CoV-2, UniProt P0DTC2, biotin (BirA biotinylation kit)).
T1 construct: source: Expi293F, purified (Ni-NTA); biotinylated with the BirA kit
As to the kind of experiment: BLI. As to conditions: both partners purified.

Experiment [2] deals with T2, SARS-CoV-2 WA-1 RBD (SARS-CoV-2, UniProt P0DTC2 331-527).
T2 construct: source: Expi293F, purified (Ni-NTA)
The experiment can be described thus: BLI. The note with it: both partners purified.

B1: LY-CoV-555 (antibody, V domains shown)
VH: QVQLVQSGAEVKKPGSSVKVSCKASGGTFSNYAISWVRQAPGQGLEWMGRIIPILGIANYAQKFQGRVTITADKSTSTAYMELSSLRSEDTAVYYCARGYYEARHYYYYYAMDVWGQGTAVTVSS
VL: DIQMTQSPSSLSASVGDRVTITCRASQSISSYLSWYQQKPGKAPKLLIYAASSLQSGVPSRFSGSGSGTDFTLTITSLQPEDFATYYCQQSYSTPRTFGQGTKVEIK
notes: control antibody, IgG1; also called antigen site E (Class II); source: Expi293F, purified; expressed as human IgG1
In the case of B1, in experiment [1], the binding result is given as “binds”.

B2: CB6 (antibody, V domains shown)
VH: EVQLVESGGGLVQPGGSLRLSCAASGFTVSSNYMSWVRQAPGKGLEWVSVIYSGGSTFYADSVKGRFTISRDNSMNTLFLQMNSLRAEDTAVYYCARVLPMYGDYLDYWGQGTLVTVSS
VL: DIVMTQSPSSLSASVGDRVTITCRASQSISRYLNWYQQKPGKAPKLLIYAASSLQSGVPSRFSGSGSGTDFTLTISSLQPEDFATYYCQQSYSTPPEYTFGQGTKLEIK
notes: control antibody, IgG1; also called antigen site B (Class I); source: Expi293F, purified; expressed as human IgG1
Take B2: the binding result in experiment [1] is given as “binds”.

B3: A19-61.1 (antibody, V domains shown)
VH: QVQLVESGGGVVQPGRSLRLSCAASGFTFSSYAFHWVRQAPGKGLEWVAVISYDGSNQYYADSVKGRFTISRDNSKNTLYLQMNSLRADDTAVYYCARDLAIAVAGTWHYYNGMDVWGQGTTVTVSS
VL: DIQMTQSPSSVSASVGDRVIITCRASQGISSWLAWYQQKPGKAPKVLIYDASSLQSGVPSRFSGSGYGTDFTLTISSLQPEDSATYYCQQAKSFPITFGQGTRLEIK
notes: control antibody, IgG1; also called antigen site F (Class III); source: Expi293F, purified; expressed as human IgG1
Turning to B3, the binding result in experiment [1] was “binds”.

B4: A19-46.1 (antibody, V domains shown)
VH: QVQLVESGGGVVQPGRSLRLSCAASGFTLSSYGMHWVRQAPGKGLEWVAVISYDGSNKYYVDSVKGRFTISRDNSKNTLYLQMNSLRAEDTAVYYCARGWAYWELLPDYYYGMDVWGQGTTVTVSS
VL: QTVVTQEPSFSVSPGGTVTLTCGLSSGSVSTAYFPSWYQQTPGQAPRTLIYGTNTRSSGVPDRFSGSILGNKAALTITGAQADDESDYYCVLYMGRGIVVFGGGTKLTVL
notes: control antibody, IgG1; also called antigen site D (Class II); source: Expi293F, purified; expressed as human IgG1
Take B4: the binding result in experiment [1] was “binds”.

B5: WRAIR-5001 (antibody, V domains shown)
VH: QVQLVQSGAEVKKPGASVKLSCKASGYTFTSYSINWVRQAPGQGLEWMGWVNPSNGVTVYAQKFQGRVTMTRDTSTSTAYMELSSLRFEDTAVYYCARERDQLVVYFDHWGQGALVTVSS
VL: SYELTQPRSVSVSPGQTARITCGGDNIASKNVHWYQQKLAQAPVLVIYYDSDRPSGIPERFSGSNSGNTATLTISGVEAGDEADYYCQVWDSYSGHHVLFGGGTRLTVLG
notes: also called CoV_5001; source: Expi293F, transfected, purified (Protein A magnetic beads)
In experiment [2], B5 had a koff of 0.000119 s⁻¹ and an on-rate (kon) of 209000 M⁻¹ s⁻¹.

B6: WRAIR-5005 (antibody, V domains shown)
VH: QVQLQESGPGLVKPSETLSLTCAVSGSSVNSGYGWTWLRQPPGKGLEWIGYIGGGSGSTIYNPSLKSRLTISKDTSKNQFSLKLSSVTAADTAVYYCASLDYGTTYSWFDVWGPGVLVTVSS
VL: SYELTQPRSVSVSPGQMARITCGGDNIGSKSVQWYQHKPPQAPVLVIYADSERPSGIPERFSGSNSGNTATLTISGVEAGDEADYYCQVWDSSSDVLFGGGTRLTVLG
notes: also called CoV_5005; source: Expi293F, transfected, purified (Protein A magnetic beads)
Consider B6, for which, in experiment [2], the Kd was 1.14 ± 0.013 nM, the koff was 0.000238 s⁻¹ and the kon is 209000 M⁻¹ s⁻¹.

B7: WRAIR-5004 (antibody, V domains shown)
VH: QVQLVQSGAEIKQPGASVKLSCKASGYTFTTYYIHWVRQAPGQGLEWIGLISPYNGNRGYAQNFQGRVTITTDTSTSTGYMELSSLRSEDTAVYYCTRERVVAAAGYFDYWGQGVLVTVSS
VL: SYELTQPPSVSVSPGQTARITCGGDNIGSKNVQWYQQKPAQAPVLVIYDDSERPSGIPERFSGSNSGNTATLTISGVEAGDEAGYSCQVWDSSPDHYIFGAGTRLTVLG
notes: also called CoV_5004; source: Expi293F, transfected, purified (Protein A magnetic beads)
In experiment [2], B7 registered a dissociation constant (Kd) of 0.72 ± 0.015 nM, a koff of 0.000154 s⁻¹ and an on-rate (kon) of 199000 M⁻¹ s⁻¹.

B8: WRAIR-5011 (antibody, V domains shown)
V domain 1: EVQLVQSGAEIKQPGASVKLSCKASGYTFTSYYIHWVRQAPGQGLEWIGLISPYNGNRAYAQNFQGRVTITTDTSTSTVYMELSSLKSEDTAVYYCAGEEYSNYGYFDLWGPGTPITISS
V domain 2: SYELTQPPSVSVSPGQTARITCGGDNIGSKNVQWYQQKPAQAPVLVIYDDSERPSGIPERFSGSNSGNTATLTISGVEAGDEADYYCQVWDSSGDHYIFGAGTRLTVLG
notes: also called CoV_5011; source: Expi293F, transfected, purified (Protein A magnetic beads)
In experiment [2], B8 came in with a dissociation constant (Kd) of 0.69 ± 0.013 nM, an off-rate constant (koff) of 0.000147 s⁻¹ and an association rate constant (kon) of 215000 M⁻¹ s⁻¹.

B9: WRAIR-5021 (antibody, V domains shown)
VH: QVQLQESGPGLVKPSETLSLTCAVSGYSISSGYYWGWIRQPPGKGLEYIGYFSGTTGSTYYNPSLKSRVTISKDTSKNQFSLKLNSVTAADTAVYYCARQPPRFDVWGPGVLVTVST
VL: DIQMTQSPSSLSASVGDTVTITCRASQGISNFLNWYQQKPGKAPKLLIYDASRLESGVPSRFSGSGSGTEFTLTISSLQPEDFATYHCLQYDSDPFTFGPGTKLDIKR
notes: also called CoV_5021; source: Expi293F, transfected, purified (Protein A magnetic beads)
In experiment [2], B9 registered a Kd of 1.09 ± 0.007 nM, a koff of 0.000353 s⁻¹ and a kon of 325000 M⁻¹ s⁻¹.

B10: WRAIR-5020 (antibody, V domains shown)
VH: QVQLQESGPGLVKPSETLSLTCAVSGASISSYWWGWIRQPPGKGLEWIGRISGSSGSTSYNPSLKSRVTISTDTSKNQFSLKLSSVTAADTAVYYCASRITIFGLLRSYWGQGVLVTVSS
VL: EIVMTQSPATLSLSPRERATLSCRASQSVSSNLAWYQQKPGQAPRLLIYYASNRATGIPDRFSGSGSGTDFTLTISSLEPEDVGLYYCQQESNWPWTFGQGTKVEIKR
notes: also called CoV_5020; source: Expi293F, transfected, purified (Protein A magnetic beads)
As for B10, in experiment [2], the dissociation constant (Kd) came to 13 ± 0.1 nM, the off-rate (koff) amounted to 0.00273 s⁻¹ and the association rate constant (kon) came out at 210000 M⁻¹ s⁻¹.

Broadly, the koff is a measure of how fast the partners let go of each other. High values mean fast dissociation, low ones slow dissociation. For orientation: kon means a measure of how fast the partners come together. The low end stands for slow association, the high end for fast association. As a reminder, the Kd is the concentration at which binding is half-saturated. The low end stands for tighter binding, the high end for weaker binding.
